Data: paper PMC11065751
“And” between values parts separate entries of the source, which are not always exact repeats. Equal values may be shown once.

Assays:
[1] = target: Vangl2-Long (70 kD isoform), endogenous mouse (mouse (endogenous in IMCD3)); experiment: co-IP; endogenous proteins; SKBR7 or IMCD3 cell lysates (50 mM Hepes-NaOH pH 8, 150 mM NaCl, 10% glycerol, 2 mM EDTA, 0.5% NP-40) incubated overnight at 4 °C with N-VGL2 pAb (VANGL2-Long specific) or mAb 36E3, protein A or G beads; blots with mAb 36E3 and mAb 19D5; 62 kD and 70 kD bands quantified for the ratio
[2] = target: Vangl2-Long (70 kD isoform), endogenous mouse (mouse (endogenous in IMCD3)); experiment: co-IP; serial IP of endogenous proteins from IMCD3 cell extracts: two successive rounds of IP with N-VGL2 pAb, then IP of the Vangl2-Long depleted lysate with a Vangl1-specific antibody

stoichiometry N (Vangl2 per Vangl2-Long) [1]: 3 and 4 | percent of Vangl2 depleted by IP of Vangl2-Long [2]: 50%
B1: Vangl2 (canonical 62 kD isoform), endogenous mouse (natural protein)
chain: MDTESQYSGYSYKSGHSRSSRKHRDRRDRHRSKSRDGSRGDKSVTIQAPGEPLLDNESTRGDERDDNWGETTTVVTGTSEHSISHDDLTRIAKDMEDSVPLDCSRHLGVAAGAILALLSFLTPLAFLLLPPLLWREELEPCGTACEGLFISVAFKLLILLLGSWALFFRRPKASLPRVFVLRALLMVLVFLLVISYWLFYGVRILDARERSYQGVVQFAVSLVDALLFVHYLAVVLLELRQLQPQFTLKVVRSTDGASRFYNVGHLSIQRVAVWILEKYYHDFPVYNPALLNLPKSVLAKKVSGFKVYSLGEENSTNNSTGQSRAVIAAAARRRDNSHNEYYYEEAEHERRVRKRRARLVVAVEEAFTHIKRLQEEEQKNPREVMDPREAAQAIFASMARAMQKYLRTTKQQPYHTMESILQHLEFCITHDMTPKAFLERYLAAGPTIQYHKERWLAKQWTLVSEEPVTNGLKDGIVFLLKRQDFSLVVSTKKVPFFKLSEEFVDPKSHKFVMRLQSETSV
